Test system: soybean plants
Experiment: Herbicide tolerance of transgenic soybean T1 plants (spraying, damage degree)
Assay type: in vivo
Conditions: sprayed with tribenuron-methyl 144 g ai/ha, eight-fold field concentration
Experimental: The degree of damage caused by the herbicide was measured for each plant according to the leaf curl degree and the growth point damage degree 3 days after spraying (3 DAT), 7 days after spraying (7 DAT), 14 days after spraying (14 DAT) and 21 days after spraying (21 DAT): the case where the leaves are flat as untreated plants and the growth points are intact is defined as having a damage degree of 0%; the case where veins are locally browned, new leaves are malformed and plant growth is slow is defined as having a damage degree of 50%; and the case where veins are purple, until the whole plant is dead and the growth points are browned and dry is defined as having a damage degree of 100%. The soybean plants into which the ALT02M1-01 nucleotide sequence was introduced were of three strains in total (S1, S2 and S3), the soybean plants into which the ALT02M2-01 nucleotide sequence was introduced were of three strains in total (S4, S5 and S6), the soybean plants into which the ALT02M3-01 nucleotide sequence was introduced were of three strains in total (S7, S8 and S9), the soybean plants into which the ALT02-01 nucleotide sequence was introduced were of three strains in total (S10, S11 and S12), the control soybean plants were of two strains in total (S13 and S14), and the wild-type soybean plants were of one strain in total (CK1); and 10-15 plants were selected from each strain and tested.

B1: ALT02-01: nucleotide sequence SEQ ID NO: 21 encoding ALT02, based on soybean codon usage bias (nucleic acid)
DNA: ATGGAGACTGATAACGTGGAACTCGCCCAATCTAAGAGAAAGGTGGTGCTGGCTGAACAAGGGTCATTTTACATAGGGGGTAGGACTGTTACTGGTCCTGGCAAGTTTGATCCATCCAAACCTGTGATACCCTACAGTAACGAAGGAGCAACATTCTATATTAACCAAATGTATGTTAACTTCCAGGCCCCAGTGAGACCTAGGGGACTTCCATTGGTTTTCTGGCATGGAGGTGGCTTGACTGGTCACATCTGGGAGTCTACACCTGACGGCAGACCCGGGTTTCAAACCCTCTTCGTTCAGGATAGGCATACCGTGTACACTATTGACCAACCTGGGAGAGGAAGGGGTAACATCCCAACTTTTAACGGACCTTTCGGACAGTTGGAGGAAGAGAGTATTGTTAACACTGTGACAGGAAATTCTTCAAAGGAAGGTGCCTGGGTGAGAGATAGGCTTGGCCCTGCTCCCGGGCAATTTTTCGAGAACTCTCAGTTTCCTAGAGGCTATGAAGACAATTACTTTAAGGAGATGGGATTCAGCCCATCTATATCCAGTGATGAAATTGTTGACGCTGTTGTGAAACTCGTGACCCATATTGGTCCTTGTGTTCTGGTGACTCACTCAGCATCCGGCGTTCTTGGGATGAGAGTGGCTACACACGCAAAGAATGTTAGGGGAATTGTGGCCTATGAACCAGCTACCTCAATCTTCCCCAAGGGAAAAGTTCCAGAGATACCACCTCTCGCTGATAAGAAAAGCCAAATCTTTCCCCCATTCGAAATACAGGAGTCTTACTTTAAGAAACTTGCCAAGATTCCAATCCAATTTGTTTTCGGAGATAACATCCCCAAGAATCCAAAATCAGCATATTGGTTCCTGGACTGGTGGAGAGTGACAAGATACGCACATAGTCTCAGCCTGGAGGCCATAAACAAATTGGGGGGACAAGCTTCCCTTTTGGATCTTCCTACTGCAGGATTGAGAGGTAATACACACTTTCCCTTCACCGATAGGAACAATGTTCAGGTGGCTTCTCTCCTGTCAGACTTTCTGGGTAAACACGGTCTGGATCAAAATGAGAGCAAACTCGCCGCCGCCCTGGAATGA
modifications: the ALT02-01 nucleotide sequence encoding the amino acid sequence corresponding to the ALT02 and based on the soybean codon usage bias
- herbicide tolerance imparted to transgenic soybean plants: impart transgenic soybean plants with the tolerance to benzenesulfonic acid

From patent US12385058B2, “Herbicide tolerance protein, encoding gene thereof and use thereof” (Beijing Dabeinong Biotechnology Co., Ltd., priority 2018, dated 2025)
